B1: Retinoblastoma-associated protein (Homo sapiens), P06400 (parent)
chain: MPPKTPRKTAATAAAAAAEPPAPPPPPPPEEDPEQDSGPEDLPLVRLEFEETEEPDFTALCQKLKIPDHVRERAWLTWEKVSSVDGVLGGYIQKKKELWGICIFIAAVDLDEMSFTFTELQKNIEISVHKFFNLLKEIDTSTKVDNAMSRLLKKYDVLFALFSKLERTCELIYLTQPSSSISTEINSALVLKVSWITFLLAKGEVLQMEDDLVISFQLMLCVLDYFIKLSPPMLLKEPYKTAVIPINGSPRTPRRGQNRSARIAKQLENDTRIIEVLCKEHECNIDEVKNVYFKNFIPFMNSLGLVTSNGLPEVENLSKRYEEIYLKNKDLDARLFLDHDKTLQTDSIDSFETQRTPRKSNLDEEVNVIPPHTPVRTVMNTIQQLMMILNSASDQPSENLISYFNNCTVNPKESILKRVKDIGYIFKEKFAKAVGQGCVEIGSQRYKLGVRLYYRVMESMLKSEEERLSIQNFSKLLNDNIFHMSLLACALEVVMATYSRSTSQNLDSGTDLSFPWILNVLNLKAFDFYKVIESFIKAEGNLTREMIKHLERCEHRIMESLAWLSDSPLFDLIKQSKDREGPTDHLESACPLNLPLQNNHTAADMYLSPVRSPKKKGSTTRVNSTANAETQATSAFQTQKPLKSTSLSLFYKKVYRLAYLRLNTLCERLLSEHPELEHIIWTLFQHTLQNEYELMRDRHLDQIMMCSMYGICKVKNIDLKFKIIVTAYKDLPHAVQETFKRVLIKEEEYDSIIVFYNSVFMQRLKTNILQYASTRPPTLSPIPHIPRSPYKFPSSPLRIPGGNIYISPLKSPYKISEGLPTPTKMTPRSRILVSIGESFGTSEKFQKINQMVCNSDRVLKRSAEGSNPPKPLKKLRFDIEGSDEADGSKHLPGESKFQQKLAEMTSTRTRMQKQKMNDSMDTSNKEEK
partner: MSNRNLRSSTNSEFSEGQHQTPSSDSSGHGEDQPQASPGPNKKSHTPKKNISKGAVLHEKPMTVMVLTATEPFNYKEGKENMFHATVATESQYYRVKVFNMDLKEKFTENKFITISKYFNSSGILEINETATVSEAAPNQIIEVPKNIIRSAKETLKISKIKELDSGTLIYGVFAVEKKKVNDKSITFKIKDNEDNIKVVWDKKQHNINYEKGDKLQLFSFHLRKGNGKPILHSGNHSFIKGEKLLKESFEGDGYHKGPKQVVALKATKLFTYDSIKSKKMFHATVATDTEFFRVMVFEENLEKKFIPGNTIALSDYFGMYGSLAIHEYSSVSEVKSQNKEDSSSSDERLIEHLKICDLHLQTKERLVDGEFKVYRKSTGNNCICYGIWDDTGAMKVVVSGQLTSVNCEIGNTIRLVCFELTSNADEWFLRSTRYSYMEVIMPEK

Variants of B1 are the subject of this assay. The conditions noted are these: with ifi2_mouse Ifi202, Q9R002.
For C706F, the “effect of a mutation on the interaction” value was “decreasing interaction”.

Values taken from IntAct's records for PubMed 7890747.
